Measured values from patent US20180044434A1.

T1: Ala mutant of TA0096, SEQ ID NO: 32
T1 sequence (peptide): EENMDAQWMQDEMEIGY

T2: Ala mutant having 3-amino acid substitution, SEQ ID NO: 46
T2 sequence (peptide): EENMDDAAAQDEMEIGY


Tests used:
[1] = target: T1, Ala mutant of TA0096, SEQ ID NO: 32; test: ELISA, coated peptide
[2] = target: T2, Ala mutant having 3-amino acid substitution, SEQ ID NO: 46; test: ELISA, coated peptide

Row | OD 490/630 nm [1] | OD 490/630 nm [2] | Binder
1 | 0.628 |  | A11 (antibody, V domains shown) VH: AVTLDESGGGLQTPGGALSLVCKASGFDFSSYGMGWMRQAPGKGLEYVAAIRNDGSWTGYGAAVKGHATISRDNGQSTVRLQLNNLRAEDTGTYYCAKTTGSRGGSIDAWGHGTEVIVS VL: ASTQPSSVSANLGGTVEITCSGGGRYYYGWYQQKSPGSAPVTVIYANDKRPSDIPSRFSGSKSGSTGTLTITGVQAEDEAVYFCGSAETSSYVFGAGTTLTVL
2 | 0.177 |  | E9 (antibody, V domains shown) VH: AVTLDESGGGLQTPGGTLSLVCKGSGFTFSSYGMGWMRQAPGKGLEYVAAIRNDGSWTGYGSAVKGRATISRDNGQSTVRLQLNNLRAEDTATYYCAKTSGSSGGSVDAWGHGTEVIVS VL: ASTQPSSVSANLGGTVEITCSGGGRYYYGWYQQKSPGSAPVTVIYANDKRPSDIPSRFSGSKSGSTGTLTITGVQAEDEAVYFCGSAETSSYVFGAGTTLTVL
3 |  | 0.178 | G8 (antibody, V domains shown) VH: AVTLDESGGGLQTPGGALSLVCKASGFTFSTYAMGWMRQAPGKGLEYVAAIRNDGSWTGYGAAVKGRATILRDNGQSTVRLQLSNLRAEDTGTYYCAKYTGSSGGSIGAWGHGTEVIVS VL: ASTQPSSVSANLGGTVEITCSGGNRNYYYGWYQQKSPGSAPVTLIYANDKRPSNIPSRFSGSKSGSTGTLTITGVQAEDEAVYFCGTADTGKYVFGAGTTLTVL
